# Bridge positions count the residues as written; N and C are the ends. Square brackets hold non-standard residues; d marks the D form. Primed or numbered codes have the meaning given here. PEG4′ = not defined here
# B1: CPT31 (cholesterol-PIE12-2-trimer with PEG32 fourth-arm spacer) (peptide)
# peptide: Ac-[dH][dP][dC][dD][dY][dP][dE][dW][dQ][dW][dL][dC][dE][dL]G[PEG4′]K-NH2
# modifications: disulfide 3-12 (inferred); not fully specified (some residues); numbers in words are those of the source; also: PIE12-2 trimer on scaffold, fourth arm PEG28 + PEG4 with cholesteryl carbamate
# Columns and labels:
# Assay in all cases: cell-based or functional assay
# [1] = molecular target: HIV-1 gp41 of isolate PBL288 (clade C) (HIV-1 isolate PBL288)
# [2] = molecular target: HIV-1 gp41 of isolate KER2008 (clade A) (HIV-1 isolate KER2008)
# [3] = molecular target: HIV-1 gp41 of isolate 93RW024 (clade A) (HIV-1 isolate 93RW024)
# [4] = molecular target: HIV-1 gp41 of isolate CAM0015 (AG) (HIV-1 isolate CAM0015)
# [5] = molecular target: HIV-1 gp41 of isolate KNH1207 (clade A) (HIV-1 isolate KNH1207)
# [6] = molecular target: HIV-1 gp41 of isolate 57128 (clade D) (HIV-1 isolate 57128)
# [7] = molecular target: HIV-1 gp41 of isolate Ba-L (clade B) (HIV-1 isolate Ba-L)
# [8] = molecular target: HIV-1 gp41 of isolate 3343IN (clade B) (HIV-1 isolate 3343IN)
# [9] = molecular target: HIV-1 gp41 of isolate SM145/GS016 (clade C) (HIV-1 isolate SM145/GS016)
# [10] = molecular target: HIV-1 gp41 of isolate CM244 (AE) (HIV-1 isolate CM244)
# [11] = molecular target: HIV-1 gp41 of isolate NP1538 (clade B) (HIV-1 isolate NP1538)
# [12] = molecular target: HIV-1 gp41 of isolate CAM0013 (AG) (HIV-1 isolate CAM0013)
# [13] = molecular target: HIV-1 gp41 of isolate 0503M02138 (AE) (HIV-1 isolate 0503M02138)
# [14] = molecular target: HIV-1 gp41 of isolate J32228M4 (clade D) (HIV-1 isolate J32228M4)
# [15] = molecular target: HIV-1 gp41 of isolate NP1695 (AE) (HIV-1 isolate NP1695)
# [16] = molecular target: HIV-1 gp41 of isolate PBL286 (clade C) (HIV-1 isolate PBL286)
# [17] = molecular target: HIV-1 gp41 of isolate KNH1209 (clade A) (HIV-1 isolate KNH1209)
# [18] = molecular target: HIV-1 gp41 of isolate D26830M4 (clade D) (HIV-1 isolate D26830M4)
# [19] = molecular target: HIV-1 gp41 of isolate A03349M1 (clade D) (HIV-1 isolate A03349M1)
# [20] = molecular target: HIV-1 gp41 of isolate CAM0014 (AG) (HIV-1 isolate CAM0014)
# [21] = molecular target: HIV-1 gp41 of isolate SE364/GS015 (clade C) (HIV-1 isolate SE364/GS015)
# [22] = molecular target: HIV-1 gp41 of isolate A08483M1 (clade D) (HIV-1 isolate A08483M1)
# [23] = molecular target: HIV-1 gp41 of isolate TZBD9/11 (clade C) (HIV-1 isolate TZBD9/11)
# [24] = molecular target: HIV-1 gp41 of isolate KSM4030 (clade A) (HIV-1 isolate KSM4030)
# [25] = molecular target: HIV-1 gp41 of isolate US1/GS0004 (clade B) (HIV-1 isolate US1/GS0004)
# [26] = molecular target: HIV-1 gp41 of isolate E08364M4 (clade D) (HIV-1 isolate E08364M4)
# [27] = molecular target: HIV-1 gp41 of isolate 56313 (clade C) (HIV-1 isolate 56313)
# [28] = molecular target: HIV-1 gp41 of isolate CAM1970LE (AG) (HIV-1 isolate CAM1970LE)
# [29] = molecular target: HIV-1 gp41 of isolate KNH1088 (clade A) (HIV-1 isolate KNH1088)
# [30] = molecular target: HIV-1 gp41 of isolate NKU3006 (clade D) (HIV-1 isolate NKU3006)
# [31] = molecular target: HIV-1 gp41 of strain JRFL (HIV-1 strain JRFL)
binder,measurement,setting,value
B1,1 nM inhibition,[1],3%
same,10 nM inhibition,[1],12%
same,1 nM inhibition,[2],84.1%
same,10 nM inhibition,[2],85.3%
same,1 nM inhibition,[3],97%
same,10 nM inhibition,[3],99.3%
same,1 nM inhibition,[4],96%
same,10 nM inhibition,[4],97%
same,1 nM inhibition,[5],92.1%
same,10 nM inhibition,[5],98.2%
same,1 nM inhibition,[6],35.2%
same,10 nM inhibition,[6],37.3%
same,1 nM inhibition,[7],96.9%
same,10 nM inhibition,[7],99.8%
same,1 nM inhibition,[8],97.6%
same,10 nM inhibition,[8],99.1%
same,1 nM inhibition,[9],30.6%
same,10 nM inhibition,[9],75.7%
same,1 nM inhibition,[10],95.4%
same,10 nM inhibition,[10],99.5%
same,1 nM inhibition,[11],95%
same,10 nM inhibition,[11],99.4%
same,1 nM inhibition,[12],98.4%
same,10 nM inhibition,[12],99.7%
same,1 nM inhibition,[13],95.2%
same,10 nM inhibition,[13],98%
same,1 nM inhibition,[14],96.1%
same,10 nM inhibition,[14],98%
same,1 nM inhibition,[15],95.7%
same,10 nM inhibition,[15],97%
same,1 nM inhibition,[16],95.8%
same,10 nM inhibition,[16],99%
same,1 nM inhibition,[17],94.3%
same,10 nM inhibition,[17],95.2%
same,1 nM inhibition,[18],95.3%
same,10 nM inhibition,[18],98.5%
same,1 nM inhibition,[19],93.6%
same,10 nM inhibition,[19],99.5%
same,1 nM inhibition,[20],98.8%
same,10 nM inhibition,[20],99.5%
same,1 nM inhibition,[21],91.6%
same,10 nM inhibition,[21],97.7%
same,1 nM inhibition,[22],69.2%
same,10 nM inhibition,[22],72.3%
same,1 nM inhibition,[23],84.7%
same,10 nM inhibition,[23],85.4%
same,1 nM inhibition,[24],93.6%
same,10 nM inhibition,[24],95.6%
same,1 nM inhibition,[25],95.3%
same,10 nM inhibition,[25],97.7%
same,1 nM inhibition,[26],50.7%
same,10 nM inhibition,[26],58.6%
same,1 nM inhibition,[27],97.9%
same,10 nM inhibition,[27],99.3%
same,1 nM inhibition,[28],97.3%
same,10 nM inhibition,[28],98.5%
same,1 nM inhibition,[29],98.5%
same,10 nM inhibition,[29],99.6%
same,1 nM inhibition,[30],97.2%
same,10 nM inhibition,[30],99.8%
same,"Antiviral potency, IC50, JRFL pseudovirion entry assay",[31],0.015 nM
